Consider nine molecules from patent US5686592, “High-affinity oligonucleotide ligands to immunoglobulin E (IgE)” (NeXstar Pharmaceuticals, Inc.).

Series [1] addresses T1, TAN IgE (chimeric: murine light chains and variable region, human heavy-chain constant region) (Mus musculus/Homo sapiens chimera, UniProt P01854-1 P01854-1:1-428).
T1 chain: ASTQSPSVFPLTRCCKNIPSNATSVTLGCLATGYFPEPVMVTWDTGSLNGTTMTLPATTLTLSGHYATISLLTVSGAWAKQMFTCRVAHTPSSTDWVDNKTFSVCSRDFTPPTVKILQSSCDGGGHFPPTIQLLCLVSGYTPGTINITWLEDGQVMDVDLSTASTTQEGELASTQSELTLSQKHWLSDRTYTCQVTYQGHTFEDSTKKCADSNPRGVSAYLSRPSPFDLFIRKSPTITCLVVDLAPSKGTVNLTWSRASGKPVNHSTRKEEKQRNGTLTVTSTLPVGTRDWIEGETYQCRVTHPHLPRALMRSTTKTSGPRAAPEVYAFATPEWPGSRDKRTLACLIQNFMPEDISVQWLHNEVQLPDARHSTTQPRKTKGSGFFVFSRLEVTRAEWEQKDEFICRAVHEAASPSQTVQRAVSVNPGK
The experiment in a line: inhibition; inhibits IgE binding to FceRI on RBL SX-38 cells, ELISA. The conditions noted are these: tags: biotinylated in the receptor assay, gift of Dr. Kinet (NIH), chain copies: 2, label: 5' 32P. Here is the method:
A cell-based enzyme linked immunosorbent assay (ELISA) was used to measure the ability of the high-affinity DNA ligands to inhibit binding of IgE to the FcεRI receptor. Rat basophilic leukemia (RBL) cell-line SX-38 which expresses the α, β and γ subunits of the human FcεRI receptor was plated at a concentration of 10^5 cells per well in 96 well flat-bottom microtiter plates. After overnight growth, the cells were washed three times in modified PBS and incubated for one hour at 37° C. in 30 µl of 1.5 µg/ml biotinylated TAN IgE. The cells were washed 3 more times and incubated in 30 µl of 1/100 dilution of horseradish peroxidase (Molecular Probes, Eugene, Oreg.) conjugated to avidin for one hour at 37° C. After three final washes, 30 µl of 3,3',5,5'-tetramethylbenzidine (TMB) substrate, (Kirkegaard and Perry Laboratories, Gaithersburg, Md.) were added as a chromogenic substrate, and the plate was immediately transferred to the microtiter plate reader (Bio-Tek instruments, Winooski, Vt.) for analysis. The absorbance at 630 nm was measured every 60 seconds over a time span of 15 minutes. The rate of color development is an indication of the extent of IgE binding to the FcεRI receptor and was determined from the linear part of absorbance versus time graphs (data not shown). […] The inhibition activities of the RNA ligands were determined using the following formula: […]
Background: In an ELISA, binding on a coated surface is turned into a signal by an enzyme label.

The target in series [2] is T2, human IgE (Homo sapiens, UniProt P01854-1 P01854-1:1-428). The experiment in a line: filter; modified PBS, 1 mM Mg2+, 37 C. Particulars: tags: Athens Research Technology, chain copies: 2, label: 5' 32P. Here is the method:
(§1) Affinities of representative DNA ligands for human IgE were determined by nitrocellulose filter binding experiments and the K_Ds are listed in Table 7. […] Individual clones tested from this pool have affinities in the same range. The affinities were not expected to vary widely since the enriched DNA pool is very homogenous. Ligand D17.0 was picked for truncation experiments. […] However, the affinity could be restored to the level of the full-length ligand by the addition of a 4 basepair stem resulting in the 37 base truncate D17.4. It is possible that the stem in D17.1 is not stable enough to prevent the formation of an alternative secondary structure and that the additional base pair in D17.4 lock in the conformation necessary for IgE binding.

The target in series [3] is T2, human IgE. The experiment in a line: filter; modified PBS, 1 mM Mg2+, 37 C; D2.0 taken as clone D002. The conditions noted are these: tags: Athens Research Technology; chain copies: 2; label: 5' 32P. Here is the method: as §1
Series [4] addresses T2, human IgE. The experiment in a line: filter; modified PBS, 1 mM Mg2+, 37 C; D31.0 taken as clone D031. The conditions noted are these: tags: Athens Research Technology; chain copies: 2; label: 5' 32P.
The target of series [5] is T1, TAN IgE (chimeric: murine light chains …). The experiment in a line: inhibition; inhibits IgE binding to FceRI on RBL SX-38 cells, ELISA. The conditions noted are these: tags: biotinylated in the receptor assay; gift of Dr. Kinet (NIH); chain copies: 2; label: 32P. Here is the method:
Rat basophilic leukemia (RBL) cell-line SX-38 which expresses the α, β and γ subunits of the human FcεRI IgE receptor was plated at a concentration of 10^5 cells per well in 96 well flat-bottom microtiter plates. After overnight growth, the cells were washed three times in modified PBS and incubated for one hour at 37° C. in 30 μl of 1.5 μg/ml biotinylated TAN IgE. The cells were washed 3 more times and incubated in 30 μl of 1/100 dilution of horseradish peroxidase conjugated to avidin (Molecular Probes, Eugene, Oreg.) for one hour at 37° C. After three final washes, 30 μl of 3,3',5,5'-tetramethylbenzidine (TMB) substrate (Kirkegaard and Perry Laboratories, Gaithersburg, Md.) were added as a chromogenic substrate and the plate was immediately transferred to the microtiter plate reader (Bio-Tek Instruments, Winooski, Vt.) for analysis. The absorbance at 630 nm was measured every 60 sec over a time span of 15 min. The rate of color development is an indication of the extent of IgE binding to the FcεRI receptor and was determined from the linear part of absorbance versus time graphs (data not shown). […] The inhibition activities of the RNA ligands were determined using the following formula: […]

Series [6] has the same target. The experiment in a line: filter; modified PBS, 1 mM Mg2+, 37 C. The conditions noted are these: tags: biotinylated in the receptor assay; gift of Dr. Kinet (NIH); chain copies: 2; label: 32P. Here is the method: To test the specificity of the high-affinity interaction between the RNA ligands and human IgE, binding experiments were performed with different immunoglobulins as described in Example 1.
In order to localize which part of the IgE molecule the RNA ligands are contacting, binding experiments were carried out with a hybrid IgE molecule. The light chains and the variable region of this TAN IgE are murine derived, whereas the constant portion of the heavy chains are human.

Series [7] has as its target T2, human IgE. The experiment in a line: filter; modified PBS, 1 mM Mg2+, 37 C. Particulars: tags: Athens Research Technology; chain copies: 2; label: 32P.
For series [8], the target named is T2, human IgE. The experiment in a line: filter; modified PBS, 1 mM Mg2+, 37 C; D11.0 taken as clone D011. The conditions noted are these: tags: Athens Research Technology; chain copies: 2; label: 5' 32P.

In general, Ki refers to a measure of affinity in units of concentration, obtained from inhibition or displacement. Read a low Ki as higher affinity. Usually Kd stands for a measure of binding affinity in units of concentration. A low value points to a tighter complex. GGGGCACGTTTATCCGTCCCTCCTAGTGGCGTGCCCC (ssDNA) [D17.4] returned a Ki in series [1] (hairpin) of around 40 nM. Also, the Kd with human IgE [2] (hairpin) came to 10 nM.

B1: D2.0 (ssDNA)
DNA: CTACCTACGATCTGACTAGCGGCCGGAGCTTTATCCGTTACTCTCAGTGGGTGACTGTCGCTTACTCTCATGTAGTTCC
The molecule B1 registered a Kd with human IgE [3] of 6 nM.

B2: D31.0 (ssDNA)
DNA: CTACCTACGATCTGACTAGCACGGGTGAGTTGATCCGTCACTCTTAGTGGTGAACCTTGTGCTTACTCTCATGTAGTTCC
The molecule B2 showed a Kd with human IgE [4] of 22 nM.

B3: D17.0 (ssDNA)
DNA: CTACCTACGATCTGACTAGCCAATGAGTGTACCACGTTTATCCGTCCCTCCTAGTGGCGTGCTTACTCTCATGTAGTTCC
In series [1] (stem-loop), B3 came in with a Ki of around 40 nM. This molecule showed a Kd in the series with human IgE [2] (stem-loop) of 9 nM.

The molecule GGGAGGACGAUGCGGGUGUGAAUGGUGUUGUGAGG (ssRNA, 2'-NH2 on all C and U) [IGEL1.2] gave a Ki in series [5] of 21 nM. Also, the Kd in series [6] came out at 36 nM; in the series with human IgE [7], 19 nM.

B4: IGEL1.1 (ssRNA)
RNA: GGGAGGACGAUGCGGGUGUGAAUGGUGUUGUGAGGUUACUGUACUUCGGUGGCUGCAGACGACUCGCCCGA
modifications: 2'-NH2 on all C and U
With B4, the Ki in series [5] worked out at 44 nM. Further, the Kd was found to be 77 nM in series [6] and 138 nM in the series with human IgE [7].

As for CACGTTTATCCGTCCCTCCTAGTGGCGTG (ssDNA) [D17.1], the Kd in the series with human IgE [2] (hairpin) amounted to 82 nM.

B5: IGEL4.1 (ssRNA)
RNA: GGGAGGACGAUGCGGACGGUAGUCUGGUAGGCGCUGUGACGGCGAGAAUCCGGACCAGACGACUCGCCCGA
modifications: 2'-NH2 on all C and U
In the series with human IgE [7], B5 gave a Kd of 87 nM.

B6: D11.0 (ssDNA)
DNA: CTACCTACGATCTGACTAGCACCGGAGTACTTCATCCGTCCCTTCTAGTGGGTACCCGTAGCTTACTCTCATGTAGTTCC
In turn, B6 yielded a Kd with human IgE [8] of 8 nM.
